Article PMC4872748, “NG2 proteoglycan as a pericyte target for anticancer therapy by tumor vessel infarction with retargeted tissue factor” (Oncotarget, 2016)

Target: T1, NG2 (nerve/glial antigen 2) proteoglycan (human (endogenous in HuAoSMC and G361), UniProt Q6UVK1 30-2322)
T1 construct: NG2 proteoglycan (CSPG4), transmembrane surface proteoglycan, endogenous on human cells; also called high-molecular melanoma associated antigen; CSPG4; source: endogenous, on human aortic smooth muscle cells (HuAoSMC) and G361-melanoma cells
Test: radioligand binding; increasing concentrations of 123I-tTF-TAA on cultivated HuAoSMC, gamma counter; nonlinear fit of total binding (GraphPad Prism 6: one site - total binding), an approximation
Details: one partner purified

T1 sequence (Q6UVK1 30-2322): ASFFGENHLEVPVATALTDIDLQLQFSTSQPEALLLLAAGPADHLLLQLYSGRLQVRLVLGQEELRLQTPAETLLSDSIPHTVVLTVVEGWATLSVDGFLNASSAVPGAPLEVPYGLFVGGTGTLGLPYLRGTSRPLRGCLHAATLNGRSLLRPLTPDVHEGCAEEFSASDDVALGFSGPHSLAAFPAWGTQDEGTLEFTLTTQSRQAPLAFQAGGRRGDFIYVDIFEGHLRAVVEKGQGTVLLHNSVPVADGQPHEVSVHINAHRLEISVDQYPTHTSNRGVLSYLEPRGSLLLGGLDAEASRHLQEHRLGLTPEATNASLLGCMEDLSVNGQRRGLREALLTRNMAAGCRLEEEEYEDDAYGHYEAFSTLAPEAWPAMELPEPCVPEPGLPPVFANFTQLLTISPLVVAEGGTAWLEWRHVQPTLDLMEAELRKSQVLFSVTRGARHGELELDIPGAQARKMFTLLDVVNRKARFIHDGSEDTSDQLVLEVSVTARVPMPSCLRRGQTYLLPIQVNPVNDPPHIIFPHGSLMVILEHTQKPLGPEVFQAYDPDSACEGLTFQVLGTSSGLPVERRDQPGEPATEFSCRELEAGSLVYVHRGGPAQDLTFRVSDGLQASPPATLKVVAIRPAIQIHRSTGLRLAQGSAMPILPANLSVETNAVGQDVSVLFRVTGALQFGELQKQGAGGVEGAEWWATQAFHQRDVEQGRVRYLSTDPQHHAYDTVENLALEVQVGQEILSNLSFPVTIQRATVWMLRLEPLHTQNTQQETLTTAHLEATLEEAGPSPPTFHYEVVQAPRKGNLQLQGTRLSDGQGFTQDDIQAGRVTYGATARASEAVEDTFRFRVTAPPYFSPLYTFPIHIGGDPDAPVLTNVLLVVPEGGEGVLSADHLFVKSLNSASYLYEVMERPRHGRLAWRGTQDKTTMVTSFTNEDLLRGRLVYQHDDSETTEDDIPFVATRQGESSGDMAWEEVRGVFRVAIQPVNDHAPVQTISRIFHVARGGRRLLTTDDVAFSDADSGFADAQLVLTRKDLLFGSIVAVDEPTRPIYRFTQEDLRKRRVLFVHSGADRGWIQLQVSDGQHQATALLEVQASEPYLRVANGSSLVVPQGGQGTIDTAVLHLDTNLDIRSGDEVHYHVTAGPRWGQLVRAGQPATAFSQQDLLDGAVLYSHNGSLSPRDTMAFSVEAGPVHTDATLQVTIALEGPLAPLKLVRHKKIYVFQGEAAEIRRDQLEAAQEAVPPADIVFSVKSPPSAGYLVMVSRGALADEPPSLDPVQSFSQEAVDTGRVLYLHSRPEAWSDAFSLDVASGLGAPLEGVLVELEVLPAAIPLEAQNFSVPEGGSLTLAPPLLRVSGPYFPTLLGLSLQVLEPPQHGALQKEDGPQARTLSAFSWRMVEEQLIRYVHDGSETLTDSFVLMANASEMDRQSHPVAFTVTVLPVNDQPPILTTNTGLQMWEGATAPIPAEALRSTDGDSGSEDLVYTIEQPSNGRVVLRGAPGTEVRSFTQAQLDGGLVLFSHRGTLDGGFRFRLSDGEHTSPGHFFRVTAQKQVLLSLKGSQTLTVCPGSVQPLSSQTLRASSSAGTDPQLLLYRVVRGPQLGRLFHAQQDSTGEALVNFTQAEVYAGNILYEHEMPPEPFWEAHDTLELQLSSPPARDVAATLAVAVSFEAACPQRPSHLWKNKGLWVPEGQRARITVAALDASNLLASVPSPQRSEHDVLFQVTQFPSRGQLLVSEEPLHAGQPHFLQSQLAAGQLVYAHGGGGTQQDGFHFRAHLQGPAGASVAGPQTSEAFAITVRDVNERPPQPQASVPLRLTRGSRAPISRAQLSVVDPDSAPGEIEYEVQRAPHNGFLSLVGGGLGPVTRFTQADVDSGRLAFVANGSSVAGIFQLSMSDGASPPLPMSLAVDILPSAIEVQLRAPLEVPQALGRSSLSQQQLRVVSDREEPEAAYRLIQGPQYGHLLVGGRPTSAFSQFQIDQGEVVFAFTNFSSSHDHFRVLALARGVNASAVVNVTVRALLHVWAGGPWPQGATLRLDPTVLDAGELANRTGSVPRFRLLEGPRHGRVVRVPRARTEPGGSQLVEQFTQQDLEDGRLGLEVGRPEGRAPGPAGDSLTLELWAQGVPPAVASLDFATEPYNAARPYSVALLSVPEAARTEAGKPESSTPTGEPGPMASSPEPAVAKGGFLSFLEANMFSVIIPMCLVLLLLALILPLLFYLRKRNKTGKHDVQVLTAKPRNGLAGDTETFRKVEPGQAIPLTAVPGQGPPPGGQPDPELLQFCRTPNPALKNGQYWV

B1: 123I-tTF218-TAA (other)
chain: SGTTNTVAAYNLTWKSTNFKTILEWEPKPVNQVYTVQISTKSGDWKSKCFYTTDTECDLTDEIVKDVKQTYLARVFSYPAGNVESTGSAGEPLYENSPEFTPYLETNLGQPTIQSFEQVGTKVNVTVEDERTLVRRNNTFLSLRDVFGKDLIYTLYYWKSSSSGKKTAKTNTNEFLIDVDKGENYCFSVQAVIPSRTVNRKSTDSPVECMGQEKGEFRTAASGVRSMH
modifications: 123I (iodinated; residues not stated)
Kd: ~0.785 µM
